# System: c-Src
# Assay: phosphorylation enrichment, bacterial display (enrichment ratio); higher = better substrate or ligand; peptides without Tyr show the background
# 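For SH2 binding enrichment of the phosphorylated peptide, bacterial display in this document: peptide library displayed on the E. coli surface as eCPX fusions, selected cells deep-sequenced, score is each peptide's frequency after selection divided by its frequency in the input.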
# 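For phosphorylation enrichment, bacterial display in this document: 11-residue human phosphosite peptides and single-mutation variants displayed on the E. coli surface, counted by deep sequencing, each peptide's frequency after selection divided by its frequency in the unselected input library; frequency after pTyr selection over input frequency; kinase dosed for 20-30% of maximal phosphorylation in three min.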
row,Sequence,phosphorylation enrichment
1,RLGDLYEEEMR [VIM_Y150],0.425
2,VFPIDYFFPPQ [AR_Y552_L548F_YF],0.906
3,KRLAVYQAGAR [APOE_Y180],0.378
4,SADIAYNYRHG [PAH_Y166_F161S],0.388
5,PPAPRYHHLAV [LZTR1_Y119_S122L],0.552
6,GIMEEYQLPFF [BMPR1A_Y453_V450M_YF],0.894
7,IGCHAYGDQFR [IDH1_Y135_R132C_YF],0.611
8,TGDFGYRTPGF [TNS2_Y668_A670T_YF],0.413
9,DLHGIYQKLVI,5.84
10,VHVEVYDRPSP,0.597
11,DMLYQYLKQIE [RPAP3_Y569],1.43
12,AKIDGYITSFR,0.407
13,RTTIHYNYMCN [TP53_Y234_C229R],0.649
14,YKTPIYPYLLP [PLD2_Y578_T577I],0.707
15,AKRKGYDMQVD [NEB_Y2770_R2773Q],0.404
16,AMGAVYQAAAL [HYOU1_Y421],2.81
17,FQQLFYLLQTN [IQGAP2_Y890_YF],0.779

row,Sequence,phosphorylation enrichment
1,ETKEDYEKILV [ANXA1_Y335_G333E],0.484
2,KTVQDYLEKFF [MMP8_Y36_YF],0.446
3,LLGFLYFFVCS [SLC34A2_Y109],2.1
4,FRDMDYRSFPR [RBM10_Y41_YF],0.4
5,SGIYQYSIAKF [FOXL2_Y83_I84S],4.12
6,LLNPSYNLPLD [TOM1L1_Y109_R108S],0.523
7,RLAKTYKTTLE [ALB_Y377_E378K],0.441
8,RNPLRYTSILT [OR51B6_Y130_S126N],0.65
9,IRQDHYESLKE [MTR_Y921],0.48
10,TTPGPHRSIFF [MPG_Y71_Y71H_YF],0.303
11,PSARTYCYKQE [KLHDC9_Y175],0.439
12,LLLLFCVVRYC [MPZ_Y177_Y177C],2.84
13,SIRFNYLLDVL [FGFR4_Y237_YF],0.413
14,EIIPFYGMSTF [FNDC3B_Y175_YF],0.782
15,WFPSTYVEEDE [VAV3_Y842],0.549
16,ANNEYYFQVCA,0.892

# Target: Grb2 SH2 (UniProt P62993)
# Assay: SH2 binding enrichment of the phosphorylated peptide, bacterial display (enrichment ratio); higher = better substrate or ligand; peptides without Tyr show the background
# Sequence of Grb2 SH2 (P62993 whole entry, looked up): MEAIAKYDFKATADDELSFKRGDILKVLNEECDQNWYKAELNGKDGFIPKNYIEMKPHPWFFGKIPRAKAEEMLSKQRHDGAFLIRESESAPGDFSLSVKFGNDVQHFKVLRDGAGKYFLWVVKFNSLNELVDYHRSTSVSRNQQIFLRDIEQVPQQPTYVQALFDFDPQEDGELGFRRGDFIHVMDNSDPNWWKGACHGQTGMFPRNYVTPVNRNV
row,Sequence,SH2 binding enrichment
1,RLGDLYEEEMR [VIM_Y150],0.876
2,VFPIDYFFPPQ [AR_Y552_L548F_YF],1.4
3,KRLAVYQAGAR [APOE_Y180],1.1
4,SADIAYNYRHG [PAH_Y166_F161S],0.817
5,PPAPRYHHLAV [LZTR1_Y119_S122L],1.45
6,GIMEEYQLPFF [BMPR1A_Y453_V450M_YF],0.719
7,IGCHAYGDQFR [IDH1_Y135_R132C_YF],0.825
8,TGDFGYRTPGF [TNS2_Y668_A670T_YF],0.765
9,DLHGIYQKLVI,0.952
10,VHVEVYDRPSP,0.803
11,DMLYQYLKQIE [RPAP3_Y569],1.15
12,AKIDGYITSFR,1.02
13,RTTIHYNYMCN [TP53_Y234_C229R],0.8
14,YKTPIYPYLLP [PLD2_Y578_T577I],0.953
15,AKRKGYDMQVD [NEB_Y2770_R2773Q],0.728
16,AMGAVYQAAAL [HYOU1_Y421],0.79
17,FQQLFYLLQTN [IQGAP2_Y890_YF],1.2

row,Sequence,SH2 binding enrichment
1,ETKEDYEKILV [ANXA1_Y335_G333E],0.972
2,KTVQDYLEKFF [MMP8_Y36_YF],0.953
3,LLGFLYFFVCS [SLC34A2_Y109],1.06
4,FRDMDYRSFPR [RBM10_Y41_YF],1.01
5,SGIYQYSIAKF [FOXL2_Y83_I84S],0.994
6,LLNPSYNLPLD [TOM1L1_Y109_R108S],0.685
7,RLAKTYKTTLE [ALB_Y377_E378K],1.01
8,RNPLRYTSILT [OR51B6_Y130_S126N],1.86
9,IRQDHYESLKE [MTR_Y921],0.961
10,TTPGPHRSIFF [MPG_Y71_Y71H_YF],0.895
11,PSARTYCYKQE [KLHDC9_Y175],0.768
12,LLLLFCVVRYC [MPZ_Y177_Y177C],2.53
13,SIRFNYLLDVL [FGFR4_Y237_YF],1.37
14,EIIPFYGMSTF [FNDC3B_Y175_YF],0.731
15,WFPSTYVEEDE [VAV3_Y842],0.743
16,ANNEYYFQVCA,0.61

# Target: SHP2-C SH2
# Assay: as above
row,Sequence,SH2 binding enrichment
1,RLGDLYEEEMR [VIM_Y150],0.567
2,VFPIDYFFPPQ [AR_Y552_L548F_YF],1.32
3,KRLAVYQAGAR [APOE_Y180],1.05
4,SADIAYNYRHG [PAH_Y166_F161S],0.699
5,PPAPRYHHLAV [LZTR1_Y119_S122L],1.36
6,GIMEEYQLPFF [BMPR1A_Y453_V450M_YF],0.464
7,IGCHAYGDQFR [IDH1_Y135_R132C_YF],0.577
8,TGDFGYRTPGF [TNS2_Y668_A670T_YF],0.709
9,DLHGIYQKLVI,0.822
10,VHVEVYDRPSP,0.777
11,DMLYQYLKQIE [RPAP3_Y569],0.635
12,AKIDGYITSFR,0.936
13,RTTIHYNYMCN [TP53_Y234_C229R],0.603
14,YKTPIYPYLLP [PLD2_Y578_T577I],1.04
15,AKRKGYDMQVD [NEB_Y2770_R2773Q],0.493
16,AMGAVYQAAAL [HYOU1_Y421],0.503
17,FQQLFYLLQTN [IQGAP2_Y890_YF],1.47

row,Sequence,SH2 binding enrichment
1,ETKEDYEKILV [ANXA1_Y335_G333E],0.905
2,KTVQDYLEKFF [MMP8_Y36_YF],0.719
3,LLGFLYFFVCS [SLC34A2_Y109],1.22
4,FRDMDYRSFPR [RBM10_Y41_YF],0.726
5,SGIYQYSIAKF [FOXL2_Y83_I84S],11.8
6,LLNPSYNLPLD [TOM1L1_Y109_R108S],0.618
7,RLAKTYKTTLE [ALB_Y377_E378K],0.669
8,RNPLRYTSILT [OR51B6_Y130_S126N],3.4
9,IRQDHYESLKE [MTR_Y921],0.771
10,TTPGPHRSIFF [MPG_Y71_Y71H_YF],1
11,PSARTYCYKQE [KLHDC9_Y175],0.815
12,LLLLFCVVRYC [MPZ_Y177_Y177C],1.58
13,SIRFNYLLDVL [FGFR4_Y237_YF],1.3
14,EIIPFYGMSTF [FNDC3B_Y175_YF],0.575
15,WFPSTYVEEDE [VAV3_Y842],0.768
16,ANNEYYFQVCA,0.491

# Target: c-Src SH2
# Assay: as above
row,Sequence,SH2 binding enrichment
1,RLGDLYEEEMR [VIM_Y150],0.848
2,VFPIDYFFPPQ [AR_Y552_L548F_YF],0.646
3,KRLAVYQAGAR [APOE_Y180],0.879
4,SADIAYNYRHG [PAH_Y166_F161S],0.445
5,PPAPRYHHLAV [LZTR1_Y119_S122L],1.98
6,GIMEEYQLPFF [BMPR1A_Y453_V450M_YF],0.49
7,IGCHAYGDQFR [IDH1_Y135_R132C_YF],0.516
8,TGDFGYRTPGF [TNS2_Y668_A670T_YF],0.529
9,DLHGIYQKLVI,0.597
10,VHVEVYDRPSP,0.585
11,DMLYQYLKQIE [RPAP3_Y569],0.537
12,AKIDGYITSFR,0.625
13,RTTIHYNYMCN [TP53_Y234_C229R],0.994
14,YKTPIYPYLLP [PLD2_Y578_T577I],2.4
15,AKRKGYDMQVD [NEB_Y2770_R2773Q],0.533
16,AMGAVYQAAAL [HYOU1_Y421],1.08
17,FQQLFYLLQTN [IQGAP2_Y890_YF],0.892

row,Sequence,SH2 binding enrichment
1,ETKEDYEKILV [ANXA1_Y335_G333E],0.594
2,KTVQDYLEKFF [MMP8_Y36_YF],0.64
3,LLGFLYFFVCS [SLC34A2_Y109],0.776
4,FRDMDYRSFPR [RBM10_Y41_YF],0.543
5,SGIYQYSIAKF [FOXL2_Y83_I84S],2.06
6,LLNPSYNLPLD [TOM1L1_Y109_R108S],0.833
7,RLAKTYKTTLE [ALB_Y377_E378K],0.672
8,RNPLRYTSILT [OR51B6_Y130_S126N],3.12
9,IRQDHYESLKE [MTR_Y921],5.75
10,TTPGPHRSIFF [MPG_Y71_Y71H_YF],0.681
11,PSARTYCYKQE [KLHDC9_Y175],0.643
12,LLLLFCVVRYC [MPZ_Y177_Y177C],1.41
13,SIRFNYLLDVL [FGFR4_Y237_YF],1.1
14,EIIPFYGMSTF [FNDC3B_Y175_YF],3.09
15,WFPSTYVEEDE [VAV3_Y842],0.941
16,ANNEYYFQVCA,0.367

# Reference: the supplement of paper PMC10065799, “High-throughput profiling of sequence recognition by tyrosine kinases and SH2 domains using bacterial peptide display” (eLife, 2023)
